Measurements as given in article PMC2994652 (Biochemistry, 2010).
Where a chain is given by its changes, count along the chain named. Numbers in names are those of the source. Where “and” joins values, the source holds several entries; their conditions need not be identical. Identical values can stand only once. Like-named read-outs stand apart in the source and are kept apart here.

B1: C35S Cox11-Trx (domain or fragment, Rhodobacter sphaeroides, UniProt P56940 32-191, looked up)
chain: NWFSRVTGFAGTTAVATEAPAEVLDRTVKVRFDASREAGMPWEFRPLQREMKLKIGETGLAFYEAYNPTDRTVAGTASYNVTPDAAGGYFAKIACFCFTEQVLAPGERVEMPVTFYVDPAIIDDPDGRYVRQITLSYTFHETALTEEQAALAAESATDVN
B2: C126A Cox11-Trx (domain or fragment, Rhodobacter sphaeroides, UniProt P56940 32-191, looked up)
chain: B1 chain with S4C, C95A
B3: C126A-C128A Cox11-Trx (domain or fragment, Rhodobacter sphaeroides, UniProt P56940 32-191, looked up)
chain: B1 chain with S4C, C95A, C97A
B4: F127I Cox11-Trx (domain or fragment, Rhodobacter sphaeroides, UniProt P56940 32-191, looked up)
chain: B1 chain with S4C, F96I
B5: K123E Cox11-Trx (domain or fragment, Rhodobacter sphaeroides, UniProt P56940 32-191, looked up)
chain: B1 chain with S4C, K92E
B6: Y110E Cox11-Trx (domain or fragment, Rhodobacter sphaeroides, UniProt P56940 32-191, looked up)
chain: B1 chain with S4C, Y79E
B7: F127Y Cox11-Trx (domain or fragment, Rhodobacter sphaeroides, UniProt P56940 32-191, looked up)
chain: B1 chain with S4C, F96Y
B8: K123L-E131K Cox11-Trx (domain or fragment, Rhodobacter sphaeroides, UniProt P56940 32-191, looked up)
chain: B1 chain with S4C, K92L, E100K
B9: E131K Cox11-Trx (domain or fragment, Rhodobacter sphaeroides, UniProt P56940 32-191, looked up)
chain: B1 chain with S4C, E100K
B10: C35S-C126A-C128A Cox11-Trx (domain or fragment, Rhodobacter sphaeroides, UniProt P56940 32-191, looked up)
chain: B1 chain with C95A, C97A
B11: Cox11 domain of R. sphaeroides Cox11-Trx after cleavage from Trx (domain or fragment, Rhodobacter sphaeroides, UniProt P56940 32-191, looked up)
chain: B1 chain with S4C
B12: Y110R Cox11-Trx (domain or fragment, Rhodobacter sphaeroides, UniProt P56940 32-191, looked up)
chain: B1 chain with S4C, Y79R
B13: K123L Cox11-Trx (domain or fragment, Rhodobacter sphaeroides, UniProt P56940 32-191, looked up)
chain: B1 chain with S4C, K92L
B14: K123R Cox11-Trx (domain or fragment, Rhodobacter sphaeroides, UniProt P56940 32-191, looked up)
chain: B1 chain with S4C, K92R
B15: C128A Cox11-Trx (domain or fragment, Rhodobacter sphaeroides, UniProt P56940 32-191, looked up)
chain: B1 chain with S4C, C97A
B16: F129Y Cox11-Trx (domain or fragment, Rhodobacter sphaeroides, UniProt P56940 32-191, looked up)
chain: B1 chain with S4C, F98Y

Key:
Assay in all cases: SEC
[1] = molecular target: yeast Cox11-Trx (fusion of the extramembrane domain of yeast Cox11 with E. coli thioredoxin) (yeast)
SEC [2] = molecular target: the molecule itself
SEC [3] = molecular target: the molecule itself; remark: listed apart in the source

| Molecule | stoichiometry N [1] | stoichiometry N (SEC [2]) | stoichiometry N (SEC [3]) |
| --- | --- | --- | --- |
| yeast Cox11-Trx (fusion of the extramembrane domain of yeast Cox11 with E. coli thioredoxin) (domain or fragment) | 2 and 4 |  |  |
| B1 |  | 2 and 4 |  |
| B2 |  |  | 4 |
| B3 |  |  | 4 |
| B4 |  |  | 4 |
| B5 |  |  | 4 |
| B6 |  | 4 |  |
| B7 |  |  | 4 |
| B8 |  | 2 | 4 |
| B9 |  |  | 4 |
| B10 |  |  | 4 |
| B11 |  | 4 |  |
| B12 |  | 4 |  |
| B13 |  | 2 | 4 |
| B14 |  |  | 4 |
| B15 |  |  | 4 |
| B16 |  |  | 4 |
